Legend:
[1] = target: T1, MT1-F/NGFR (Homo sapiens, UniProt P04629+P50281); experiment: Dimer formation of MT1-F/NGFR chimera on the cell surface (anti-phosphotyrosine PY20 Western blotting, co-transfected COS1 cells); format: cell-based; conditions: for competition in the dimer formation of MT1-F/NGFR (PY20 band intensity): COS1 cells co-transfected with MT1-F/NGFR and the construct (FIG. 23)
T1 construct: expressed in transfected cells; host or cells: COS1 cells (pSG5 vector)
Protocol: Cell lysate samples were subjected to separation on SDS-PAGE, followed by a transfer of the proteins in the gel to nitrocellulose membranes (Hybond-ECL, Amersham Pharmacia Biotech, Inc.). After blocking with a solution of 10% skim milk dissolved in TBS (20 mM Tris-HCl buffer, pH 7.5 containing 150 mM NaCl), the membrane was exposed to a monoclonal anti-FLAG M2 antibody (3 μg/ml) for detecting FLAG-tagged MT1-MMP and its mutants. In order to visualize the immunoreactive bands, the membrane was further exposed to an alkaline phosphatase-conjugated goat anti-mouse IgG antibody. For the purpose of detecting a phosphotyrosine residue in chimera proteins, a monoclonal anti-phosphotyrosine antibody, PY20 (1 μg/ml) was used.
Cell lysates were subjected to SDS/PAGE, followed by a transfer of the proteins to nitrocellulose membranes (Hybond-ECL, Amersham Pharmacia Biotech, Inc.). MT1-MMP, MT1Cat, MT1-MT4PEX and MT1-F/NGFR were detected with a polyclonal anti-CAT antibody (1:2000), while MT1-MMP, MT1PEX and MT1-F/NGFR with an anti-PEX antibody (222-1D8, 0.5 μg/ml). FLAG-tagged MT1-MMP and its mutants were detected with an anti-FLAG M2 antibody (3 μg/ml). Chimera proteins containing a phosphotyrosine residue were detected with a monoclonal mouse anti-phosphotyrosine antibody, PY20 (ICN Biochemicals, Inc., OH, USA; 1 μg/ml). Immunoreactive bands were visualized with an alkaline phosphatase-conjugated goat anti-mouse IgG or anti-rabbit IgG (Sigma).
NGFR forms a dimer through binding to its ligand. Subsequently, tyrosine residues in the cytoplasmic domain are trans-phosphorylated by its tyrosine kinase (Jing, S. et al., Neuron, 9: 1067-1079, 1992; Lemmon, M. A. et al., Trends Biochem. Sci., 19: 459-463, 1994).
By utilizing the above principle, a chimeric protein is first constructed consisting of the ectodomain of MT1-MMP and the transmembrane (TM) and cytoplasmic (CP) domains of NGFR (FIG. 8) in order to test for direct complex formation. When the ectodomain of this chimeric protein forms a homophilic complex in a similar manner, tyrosine residues in the cytoplasmic domain will be phosphorylated.
It is investigated whether co-expression of MT1PEX-F and MT1-F competes in the dimer formation of MT1-F/NGFR or not. For the test, the expression plasmids for MT1-F/NGFR and MT1PEX-F were co-transfected into COS1 cells.
Next, the expression plasmids for MT1-F/NGFR and FLAG-tagged MT1PEX (MT1PEX-F), MT1Cat (MT1Cat-F), or MT1-F were co-transfected to investigate if the dimer formation of the chimera could be disrupted or not.

[2] = target: T2, MT1-F (Homo sapiens, UniProt P50281); experiment: 125I-labeled TIMP-2 binding assay on transfected CHO-K1 cells
T2 construct: expressed in transfected cells
Protocol: FIG. 12: The efficacies of MT1PEX-F on the proteolytic activity and TIMP-2 binding ability of MT1-F expressed on a cell surface are shown. As is shown in FIG. 12 through FIG. 14, CHO-K1 cells were transfected with the expression vectors for MT1-F, MT1PEX-F or MT1Cat-F, or a vector alone (Mock). The cells were then treated with trypsin, and seeded on DQ™-gelatin coated cover slips for proteolytic activity tests (FIG. 13) and in 24-well plates for TIMP-2 binding assays (FIG. 12) and for proMMP-2 activation (FIG. 14). Results are all from the same transfection experiment. […]
Next, to determine if MT1PEX-F affects the catalytic activity of MT1-MMP on the cell surface or not, tests for gelatin degrading activity and binding capacity to TIMP-2 were conducted using cells transfected in the same incubator. […] Transfected cells on the DQ™ gelatin-coated cover slip as shown in FIG. 13 were incubated in a medium at 37° C. for 18 hrs, and the generated fluorescence was analyzed using confocal microscopy. […] MT1-MMP specific binding was calculated by subtracting the datum obtained in the presence of BB-94 (50 μM) from each datum derived from the corresponding experiments. […] DQ™ gelatin is a fluorescence-quenched gelatin, which fluoresces upon proteolytic cleavage. […]

[3] = test system: HT1080 cells; experiment: Activation of endogenous proMMP-2 in HT1080 cells (zymography, Western blotting); format: cell-based, human
Protocol: FIG. 31: In regard to the efficacy of MT1PEX-F on the matrigel invasive action of HT1080 cells, HT1080 cells were transfected with the stable expression plasmids for MT1PEX-F and the empty vector (Mock). Hygromycin resistant cells were collected and re-seeded. The culture medium was changed to a serum-free medium in the presence or absence of BB94, and the cells were further cultured. The culture media and the cell lysates were analyzed by gelatin zymography and Western blotting using an anti-MT1PEX antibody, respectively.
HT1080 cells are known to express MT1-MMP and MMP-2 endogenously. Thus, the efficacy of MT1PEX-F expression on the activation of endogenous proMMF-2 in HT1080 cells was next examined. The cells were transfected with a plasmid for MT1PEX-F or an empty vector bearing the hygromycin-resistant gene. The culture medium from the hygromycin-resistant cells was analyzed for produced MMP-2 by zymography. […] Co-expression of endogenous MT1-MMP and MT1PEX-F clearly indicated the co-localization of both molecules at the edge of the cells (FIG. 32).

TIMP-2 binding capacity as compared to the cells bearing MT1-F ([2]; CHO-K1 cells expressing the mutant (FIG. 12))	decrease of phosphotyrosine signal ([1]; COS1 cells co-expressing MT1-F/NGFR and Rac1DA (FIG. 24)) [%]	inhibition of the phosphorylation of MT1-F/NGFR ([1]; COS1 cells co-transfected with MT1-F/NGFR, increasing levels of MT1PEX-F expression, PY20 band intensity (FIG. 10)) [%]	decrease in TIMP-2 binding on the cell surface as compared with MT1-F alone ([2]; CHO-K1 cells co-transfected with MT1-F, 25 nM 125I-TIMP-2, 0° C., 1 hr, BB-94 (50 μM) background subtracted (FIG. 12)) [%]	Substance	competition in the dimer formation of MT1-F/NGFR (PY20 band intensity) [1]	phosphorylation of MT1-F/NGFR ([1]; COS1 cells co-transfected with MT1-F/NGFR and MT1PEX-F at indicated DNA ratio (FIG. 10))	effect on expression and processing of endogenous MT1-MMP ([3]; HT1080 cell lysates, Western blotting (FIG. 31))	activation of endogenous proMMP-2 ([3]; hygromycin-resistant HT1080 cells, serum-free medium (FIG. 31))
equivalent TIMP-2 binding capacity	–	–	–	MT1Cat-F: PEX-deleted FLAG-tagged MT1-MMP (Δ Ile318-Gly535)	did not decrease the intensity of the band	–	–	–
–	43	≥ 90	37	MT1PEX-F: Catalytic domain-deleted FLAG-tagged MT1-MMP (Δ Tyr112-Pro312), expressed by transfection	effectively competed	inhibited depending on the expression level	did not affect the expression and processing of endogenous MT1-MMP	did not effectively activate proMMP-2
